{"source": "paper PMC3324469", "about": "“Preparation and Characterization of the Extracellular Domain of Human Sid-1” (PLoS ONE, 2012)", "proteins": {"B1": {"name": "extracellular domain of human SidT1 (SidT1 ECD), glycosylated, secreted from insect cells (domain or fragment)", "chain": "GAASPGHPAKSPRQPPAPRRDPFDAARGADFDHVYSGVVNLSTENIYSFNYTSQPDQVTAVRVYVNSSSENLNYPVLVVVRQQKEVLSWQVPLLFQGLYQRSYNYQEVSRTLCPSEATNETGPLQQLIFVDVASMAPLGAQYKLLVTKLKHFQLRTNVAFHFTASPSQPQYFLYKFPKDVDSVIIKVVSEMAYPCSVVSVQNIMCPVYDLDHNVEFNGVYQSMTKKAAITLQKKDFPGEQFFVVFVIKPEDYACGGSFFIQEKENQTWNLQRKKNLEVTIVPSIKES", "modifications": "N-linked glycosylation (sites not given)", "notes": "N-terminal glycine appendage left from the TEV protease site; human SidT1 (Sid-1 homolog), extracellular domain, residues 19-304 of Entrez Protein AAI17223, after signal peptidase and TEV cleavage; also called SidT1 extracellular domain; recombinant SidT1 ECD; source: Tni (usually) or Sf9 insect cells, baculovirus, secreted into the medium; not shown: His6, N-terminal, cleaved"}}, "target": "the molecule itself", "assay": "SEC; Superdex 200; concentrated protein applied directly to the column, no pre-incubation period; masses estimated against molecular weight standards", "note": "“And” between values parts separate entries of the source, which are not always exact repeats. Equal values may be shown once."}
{"protein": "B1", "values": [{"measurement": "stoichiometry N", "value": "2 and 4"}]}
